Experiments:
[1] = target: T1, ErbB-4 (human (human breast cancer cell line), UniProt Q15303 26-1308, limits assumed); assay: co-immunoprecipitation from HRG-stimulated Flag-CHK MCF-7 lysates
T1 construct: also called p180 ErbB-4

[2] = target: EGF receptor (EGF-R, ErbB-1) (human (human breast cancer cell lines), UniProt P00533 25-1210); assay: co-immunoprecipitation with anti-CHK antibodies from EGF-stimulated Flag-CHK MCF-7 lysates, immunoblot
[3] = target: T2, ErbB-3 (human (human breast cancer cell line), UniProt P21860 20-1342, tyrosine-phosphorylated upon HRG stimulation (sites not given)); assay: co-immunoprecipitation with anti-CHK antibody from HRG-stimulated Flag-CHK MCF-7 lysates, anti-ErbB-3 immunoblot
T2 construct: also called p180 ErbB-3
T2 sequence (P21860 20-1342 limits assumed): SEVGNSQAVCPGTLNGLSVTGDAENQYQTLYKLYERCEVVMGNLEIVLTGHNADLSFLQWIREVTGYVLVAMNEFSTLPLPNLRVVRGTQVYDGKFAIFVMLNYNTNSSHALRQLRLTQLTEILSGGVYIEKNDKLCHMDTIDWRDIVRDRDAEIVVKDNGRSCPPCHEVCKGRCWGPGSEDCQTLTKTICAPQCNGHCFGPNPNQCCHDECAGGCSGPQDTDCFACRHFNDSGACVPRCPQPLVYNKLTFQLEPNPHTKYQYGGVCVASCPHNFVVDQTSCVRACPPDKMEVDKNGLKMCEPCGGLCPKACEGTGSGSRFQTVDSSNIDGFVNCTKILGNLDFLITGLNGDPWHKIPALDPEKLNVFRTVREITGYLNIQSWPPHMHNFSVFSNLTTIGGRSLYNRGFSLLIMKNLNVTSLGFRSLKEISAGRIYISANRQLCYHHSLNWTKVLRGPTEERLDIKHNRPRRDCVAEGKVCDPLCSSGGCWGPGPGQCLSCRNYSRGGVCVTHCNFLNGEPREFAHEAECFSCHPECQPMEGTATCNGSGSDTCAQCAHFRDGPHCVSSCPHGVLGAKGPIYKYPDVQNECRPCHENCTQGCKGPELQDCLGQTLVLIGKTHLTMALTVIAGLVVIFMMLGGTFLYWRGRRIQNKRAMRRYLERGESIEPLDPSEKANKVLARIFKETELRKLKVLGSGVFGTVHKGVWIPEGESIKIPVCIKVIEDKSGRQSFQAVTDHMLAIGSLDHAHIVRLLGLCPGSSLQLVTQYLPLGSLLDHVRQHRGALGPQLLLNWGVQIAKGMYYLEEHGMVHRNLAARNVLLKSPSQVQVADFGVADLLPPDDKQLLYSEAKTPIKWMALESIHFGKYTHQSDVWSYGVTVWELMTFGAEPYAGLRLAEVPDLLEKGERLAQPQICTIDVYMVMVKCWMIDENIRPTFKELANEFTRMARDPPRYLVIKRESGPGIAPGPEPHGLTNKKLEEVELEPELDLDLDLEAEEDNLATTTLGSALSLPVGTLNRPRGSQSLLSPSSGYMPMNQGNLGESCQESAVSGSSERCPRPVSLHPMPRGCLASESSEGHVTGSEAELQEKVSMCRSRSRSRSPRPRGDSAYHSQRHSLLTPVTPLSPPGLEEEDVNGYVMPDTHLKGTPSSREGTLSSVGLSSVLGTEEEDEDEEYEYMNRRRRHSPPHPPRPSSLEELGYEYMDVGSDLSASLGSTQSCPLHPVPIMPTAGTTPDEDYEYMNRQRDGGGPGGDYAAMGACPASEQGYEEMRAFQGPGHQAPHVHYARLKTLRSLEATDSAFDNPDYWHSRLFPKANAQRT

T1 sequence (Q15303 26-1308 limits assumed): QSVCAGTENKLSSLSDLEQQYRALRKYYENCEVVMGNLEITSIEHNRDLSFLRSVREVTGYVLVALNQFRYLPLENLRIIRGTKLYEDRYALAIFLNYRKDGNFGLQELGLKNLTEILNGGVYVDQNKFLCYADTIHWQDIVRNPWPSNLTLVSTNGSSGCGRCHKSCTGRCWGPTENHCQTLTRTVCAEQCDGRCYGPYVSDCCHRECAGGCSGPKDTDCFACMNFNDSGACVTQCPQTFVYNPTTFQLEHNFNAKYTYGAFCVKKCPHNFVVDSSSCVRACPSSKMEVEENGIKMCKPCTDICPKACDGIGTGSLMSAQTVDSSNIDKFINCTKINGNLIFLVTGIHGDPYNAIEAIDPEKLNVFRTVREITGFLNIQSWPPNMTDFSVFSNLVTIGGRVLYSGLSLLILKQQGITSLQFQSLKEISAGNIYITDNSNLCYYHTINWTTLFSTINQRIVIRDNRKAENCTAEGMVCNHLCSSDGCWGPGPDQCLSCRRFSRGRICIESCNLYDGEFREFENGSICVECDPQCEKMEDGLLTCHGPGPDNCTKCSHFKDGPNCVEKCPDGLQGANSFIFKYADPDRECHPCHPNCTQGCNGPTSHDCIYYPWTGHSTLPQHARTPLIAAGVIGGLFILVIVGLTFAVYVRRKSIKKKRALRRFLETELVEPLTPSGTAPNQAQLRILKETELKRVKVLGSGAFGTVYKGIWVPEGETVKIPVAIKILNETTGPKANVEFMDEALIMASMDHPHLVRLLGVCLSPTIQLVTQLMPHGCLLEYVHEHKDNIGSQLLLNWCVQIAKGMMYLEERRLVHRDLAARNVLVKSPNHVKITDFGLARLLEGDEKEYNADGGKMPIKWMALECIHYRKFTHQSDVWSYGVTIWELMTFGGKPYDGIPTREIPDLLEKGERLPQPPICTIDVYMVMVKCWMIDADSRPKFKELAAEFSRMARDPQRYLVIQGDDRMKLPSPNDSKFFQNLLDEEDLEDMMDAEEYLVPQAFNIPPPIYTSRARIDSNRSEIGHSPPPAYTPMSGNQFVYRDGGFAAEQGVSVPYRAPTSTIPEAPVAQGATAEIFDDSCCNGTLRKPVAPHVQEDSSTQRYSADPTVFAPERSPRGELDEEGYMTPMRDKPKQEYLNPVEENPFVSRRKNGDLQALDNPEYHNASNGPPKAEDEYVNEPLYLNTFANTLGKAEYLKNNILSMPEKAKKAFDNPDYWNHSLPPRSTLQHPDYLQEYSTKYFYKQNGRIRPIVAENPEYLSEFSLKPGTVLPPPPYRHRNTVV

binding result [1]: no binding | binding result [2]: no binding | binding result [3]: no binding
B1: Flag-CHK (Flag epitope-tagged CHK expressed in MCF-7 cells from pCDNA3 neo) (enzyme)
chain: DYKDDDDKMAGRGSLVSWRAFHGCDSAEELPRVSPRFLRAWHPPPVSARMPTRRWAPGTQCITKCEHTRPKPGELAFRKGDVVTILEACENKSWYRVKHHTSGQEGLLAAGALRDGEALSADPKLSLMPWFHGKISGQEAVQQLQPPEDGLFLVRESARHPGDYVLCVSFGRDVIHYRVLHRDGHLTIDEAVFFCNLMDMVEHYSKDKGAICTKLVRPKRKHGTKSAEEELARAGWLLNLQHLTLGAQIGEGEFGAVLQGEYLGQKVAVKNIKCDVTAQAFLDETAVMTKMQHENLVRLLGVILHQGLYIVMEHVSKGNLVNFLRTRGRALVNTAQLLQFSLHVAEGMEYLESKKLVHRDLAARNILVSEDLVAKVSDFGLAKAERKGLDSSRLPVKWTAPEALKHGFTSKSDVWSFGVLLWEVFSYGRAPYPKMSLKEVSEAVEKGYRMEPPEGCPGPVHVLMSSCWEAEPPAGHPSANWPRSWPGSYAVQVPQPPSQGRTPTVHLAPKPGALTPPGGPWPQRTERVESAAWGH
notes: An initiator Met stands before the Flag tag; also called intact CHK

Source: patent US20030181404A1 (BETH ISRAEL DEACONESS MEDICAL CENTER, published 2003)
